The target of one assay is T1, murine FcγRIV (murine, UniProt A0A0B4J1G0 21-249).
T1 construct: also called muFcγRIV; murine Fcγ receptor (CD16)
T1 sequence: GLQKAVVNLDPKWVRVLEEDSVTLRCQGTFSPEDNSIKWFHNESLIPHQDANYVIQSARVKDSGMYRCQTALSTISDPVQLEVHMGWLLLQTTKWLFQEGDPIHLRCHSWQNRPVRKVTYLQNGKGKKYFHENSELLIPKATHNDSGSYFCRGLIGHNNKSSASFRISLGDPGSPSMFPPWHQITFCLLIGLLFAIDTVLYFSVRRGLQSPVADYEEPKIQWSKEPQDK
Briefly: competition flow cytometry on CHO DG-44 cells expressing murine FcγRIV; competitor 200 nmol/L Alexa Fluor 488 labeled anti-CD70 IgG1.

The target in another assay is T2, human FcγRIIIA V158 (human, UniProt P08637 17-254).
T2 construct: whole, on cells; also called huFcγRIIIA V158; human Fcγ receptor (CD16)
T2 sequence (P08637 17-254 F176V): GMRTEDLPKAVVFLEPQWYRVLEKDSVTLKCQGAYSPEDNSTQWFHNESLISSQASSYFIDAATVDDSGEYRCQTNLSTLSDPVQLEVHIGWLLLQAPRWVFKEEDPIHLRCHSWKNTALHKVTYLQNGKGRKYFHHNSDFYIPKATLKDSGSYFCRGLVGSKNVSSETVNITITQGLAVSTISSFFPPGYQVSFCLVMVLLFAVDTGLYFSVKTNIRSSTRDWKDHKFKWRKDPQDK
The assay can be described thus: competition flow cytometry on CHO DG-44 cells expressing human FcγRIIIA V158; competitor 50 nmol/L Alexa Fluor 488 labeled anti-CD70 IgG1.

The text below walks through data of US20190276796A1 (Seagen, published 2019).

B1: control h1F6 antibody (humanized IgG1 anti-CD70 monoclonal antibody, from CHO DG44 cells cultured without fucose analog; core fucosylated) (antibody)
chain 1: QVQLVQSGAEVKKPGASVKVSCKASGYTFTNYGMNWVRQAPGQGLKWMGWINTYTGEPTYADAFKGRVTMTRDTSISTAYMELSRLRSDDTAVYYCARDYGDYGMDYWGQGTTVTVSSASTKGPSVFPLAPCSRSTSESTAALGCLVKDYFPEPVTVSWNSGALTSGVHTFPAVLQSSGLYSLSSVVTVPSSNFGTQTYTCNVDHKPSNTKVDKTVERKCCVECPPCPAPPVAGPSVFLFPPKPKDTLMISRTPEVTCVVVDVSHEDPEVQFNWYVDGVEVHNAKTKPREEQFNSTFRVVSVLTVVHQDWLNGKEYKCKVSNKGLPAPIEKTISKTKGQPREPQVYTLPPSREEMTKNQVSLTCLVKGFYPSDIAVEWESNGQPENNYKTTPPMLDSDGSFFLYSKLTVDKSRWQQGNVFSCSVMHEALHNHYTQKSLSLSPGK
chain 2: DIVMTQSPDSLAVSLGERATINCRASKSVSTSGYSFMHWYQQKPGQPPKLLIYLASNLESGVPDRFSGSGSGTDFTLTISSLQAEDVAVYYCQHSREVPWTFGQGTKVEIKRTVAAPSVFIFPPSDEQLKSGTASVVCLLNNFYPREAKVQWKVDNALQSGNSQESVTEQDSKDSTYSLSSTLTLSKADYEKHKVYACEVTHQGLSSPVTKSFNRGEC
In the case of B1, the EC50 with murine FcγRIV stood at 369 nM; in the assay with human FcγRIIIA V158, 113 nM.
